Tested on: Arabidopsis thaliana T1 plants
Test: Topramezone tolerance of transgenic Arabidopsis thaliana T1 plants (pesticide damage grade by bleached leaf area, score, resistance evaluation)
Type: in vivo
Parameters: score: scale not given here
Settings: HPPD from Avena sativa source; for Grade 0 / Grade 1 / Grade 2 / Grade 3: number of plants
Method in brief: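 Eighteen days after sowing, wild-type and HPPD-transgenic T1 Arabidopsis receive a topramezone spray at 1×, 2× or 4× field rate (25–100 g ai/ha) or water. Seven days later each plant is graded by its proportion of bleached leaf area.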

B1: F372P (protein, listed as Avena sativa)
chain: MPPTPATATGAAAAAVTPEHAARSFPRVVRVNPRSDRFPVLSFHHVELWCADAASAAGRFSFALGAPLAARSDLSTGNSAHASLLLRSGALAFLFTAPYAPPPQEAATAAATASIPSFSADAARTFAAAHGLAVRSVGVRVADAAEAFRVSVAGGARPAFAPADLGHGFGLAEVELYGDVVLRFVSYPDETDLPFLPGFERVSSPGAVDYGLTRFDHVVGNVPEMAPVIDYMKGFLGFHEFAEFTAEDVGTTESGLNSVVLANNSEAVLLPLNEPVHGTKRRSQIQTYLEYHGGPGVQHIALASNDVLRTLREMRARTPMGGFEFMAPPQAKYYEGVRRIAGDVLSEEQIKECQELGVLVDRDDQGVLLQIPTKPVGDRPTFFLEMIQRIGCMEKDEVGQEYQKGGCGGFGKGNFSELFKSIEDYEKSLEVKQSVVAQKS
modifications: AsHPPD Amido Acid Sequence
For B1, the “Resistance Grade” value (topramezone 25 g ai/ha (1x)) was “Highly resistant”, the score (topramezone 25 g ai/ha (1x)) was 0 and the “Grade 0” value (topramezone 25 g ai/ha (1x)) was 20. For the same molecule, the “Grade 1” value (topramezone 25 g ai/ha (1x)) was 0, the “Grade 2” value (topramezone 25 g ai/ha (1x)) was 0 and the “Grade 3” value (topramezone 25 g ai/ha (1x)) was 0. For the same molecule, the “Resistance Grade” value (topramezone 50 g ai/ha (2x)) was “Highly resistant”, the score (topramezone 50 g ai/ha (2x)) was 0 and the “Grade 0” value (topramezone 50 g ai/ha (2x)) was 20. For the same molecule, the “Grade 1” value (topramezone 50 g ai/ha (2x)) was 0, the “Grade 2” value (topramezone 50 g ai/ha (2x)) was 0 and the “Grade 3” value (topramezone 50 g ai/ha (2x)) was 0. For the same molecule, the “Resistance Grade” value (topramezone 100 g ai/ha (4x)) was “Moderately resistant”, the score (topramezone 100 g ai/ha (4x)) was 33 and the “Grade 0” value (topramezone 100 g ai/ha (4x)) was 4. The “Grade 1” value (topramezone 100 g ai/ha (4x)) was 12, the “Grade 2” value (topramezone 100 g ai/ha (4x)) was 4 and the “Grade 3” value (topramezone 100 g ai/ha (4x)) was 0.

B2: F372S (protein, listed as Avena sativa)
chain: MPPTPATATGAAAAAVTPEHAARSFPRVVRVNPRSDRFPVLSFHHVELWCADAASAAGRFSFALGAPLAARSDLSTGNSAHASLLLRSGALAFLFTAPYAPPPQEAATAAATASIPSFSADAARTFAAAHGLAVRSVGVRVADAAEAFRVSVAGGARPAFAPADLGHGFGLAEVELYGDVVLRFVSYPDETDLPFLPGFERVSSPGAVDYGLTRFDHVVGNVPEMAPVIDYMKGFLGFHEFAEFTAEDVGTTESGLNSVVLANNSEAVLLPLNEPVHGTKRRSQIQTYLEYHGGPGVQHIALASNDVLRTLREMRARTPMGGFEFMAPPQAKYYEGVRRIAGDVLSEEQIKECQELGVLVDRDDQGVLLQISTKPVGDRPTFFLEMIQRIGCMEKDEVGQEYQKGGCGGFGKGNFSELFKSIEDYEKSLEVKQSVVAQKS
modifications: AsHPPD Amido Acid Sequence
With B2 the “Resistance Grade” value (topramezone 25 g ai/ha (1x)) was “Highly resistant”, the score (topramezone 25 g ai/ha (1x)) was 0 and the “Grade 0” value (topramezone 25 g ai/ha (1x)) was 20. The “Grade 1” value (topramezone 25 g ai/ha (1x)) was 0, the “Grade 2” value (topramezone 25 g ai/ha (1x)) was 0 and the “Grade 3” value (topramezone 25 g ai/ha (1x)) was 0. The “Resistance Grade” value (topramezone 50 g ai/ha (2x)) was “Highly resistant”, the score (topramezone 50 g ai/ha (2x)) was 0 and the “Grade 0” value (topramezone 50 g ai/ha (2x)) was 20. For the same molecule, the “Grade 1” value (topramezone 50 g ai/ha (2x)) was 0, the “Grade 2” value (topramezone 50 g ai/ha (2x)) was 0 and the “Grade 3” value (topramezone 50 g ai/ha (2x)) was 0. For the same molecule, the “Resistance Grade” value (topramezone 100 g ai/ha (4x)) was “Highly resistant”, the score (topramezone 100 g ai/ha (4x)) was 0 and the “Grade 0” value (topramezone 100 g ai/ha (4x)) was 20. The “Grade 1” value (topramezone 100 g ai/ha (4x)) was 0, the “Grade 2” value (topramezone 100 g ai/ha (4x)) was 0 and the “Grade 3” value (topramezone 100 g ai/ha (4x)) was 0.

B3: F372T (protein, listed as Avena sativa)
chain: MPPTPATATGAAAAAVTPEHAARSFPRVVRVNPRSDRFPVLSFHHVELWCADAASAAGRFSFALGAPLAARSDLSTGNSAHASLLLRSGALAFLFTAPYAPPPQEAATAAATASIPSFSADAARTFAAAHGLAVRSVGVRVADAAEAFRVSVAGGARPAFAPADLGHGFGLAEVELYGDVVLRFVSYPDETDLPFLPGFERVSSPGAVDYGLTRFDHVVGNVPEMAPVIDYMKGFLGFHEFAEFTAEDVGTTESGLNSVVLANNSEAVLLPLNEPVHGTKRRSQIQTYLEYHGGPGVQHIALASNDVLRTLREMRARTPMGGFEFMAPPQAKYYEGVRRIAGDVLSEEQIKECQELGVLVDRDDQGVLLQITTKPVGDRPTFFLEMIQRIGCMEKDEVGQEYQKGGCGGFGKGNFSELFKSIEDYEKSLEVKQSVVAQKS
modifications: AsHPPD Amido Acid Sequence
B3 was tested, and the “Resistance Grade” value (topramezone 25 g ai/ha (1x)) was “Highly resistant”, the score (topramezone 25 g ai/ha (1x)) was 0 and the “Grade 0” value (topramezone 25 g ai/ha (1x)) was 20. For the same molecule, the “Grade 1” value (topramezone 25 g ai/ha (1x)) was 0, the “Grade 2” value (topramezone 25 g ai/ha (1x)) was 0 and the “Grade 3” value (topramezone 25 g ai/ha (1x)) was 0. The “Resistance Grade” value (topramezone 50 g ai/ha (2x)) was “Highly resistant”, the score (topramezone 50 g ai/ha (2x)) was 3 and the “Grade 0” value (topramezone 50 g ai/ha (2x)) was 18. For the same molecule, the “Grade 1” value (topramezone 50 g ai/ha (2x)) was 2, the “Grade 2” value (topramezone 50 g ai/ha (2x)) was 0 and the “Grade 3” value (topramezone 50 g ai/ha (2x)) was 0. The “Resistance Grade” value (topramezone 100 g ai/ha (4x)) was “Moderately resistant”, the score (topramezone 100 g ai/ha (4x)) was 17 and the “Grade 0” value (topramezone 100 g ai/ha (4x)) was 10. The “Grade 1” value (topramezone 100 g ai/ha (4x)) was 10, the “Grade 2” value (topramezone 100 g ai/ha (4x)) was 0 and the “Grade 3” value (topramezone 100 g ai/ha (4x)) was 0.

B4: F372W (protein, listed as Avena sativa)
chain: MPPTPATATGAAAAAVTPEHAARSFPRVVRVNPRSDRFPVLSFHHVELWCADAASAAGRFSFALGAPLAARSDLSTGNSAHASLLLRSGALAFLFTAPYAPPPQEAATAAATASIPSFSADAARTFAAAHGLAVRSVGVRVADAAEAFRVSVAGGARPAFAPADLGHGFGLAEVELYGDVVLRFVSYPDETDLPFLPGFERVSSPGAVDYGLTRFDHVVGNVPEMAPVIDYMKGFLGFHEFAEFTAEDVGTTESGLNSVVLANNSEAVLLPLNEPVHGTKRRSQIQTYLEYHGGPGVQHIALASNDVLRTLREMRARTPMGGFEFMAPPQAKYYEGVRRIAGDVLSEEQIKECQELGVLVDRDDQGVLLQIWTKPVGDRPTFFLEMIQRIGCMEKDEVGQEYQKGGCGGFGKGNFSELFKSIEDYEKSLEVKQSVVAQKS
modifications: AsHPPD Amido Acid Sequence
For B4, the “Resistance Grade” value (topramezone 25 g ai/ha (1x)) was “Poorly resistant”, the score (topramezone 25 g ai/ha (1x)) was 37 and the “Grade 0” value (topramezone 25 g ai/ha (1x)) was 6. For the same molecule, the “Grade 1” value (topramezone 25 g ai/ha (1x)) was 6, the “Grade 2” value (topramezone 25 g ai/ha (1x)) was 8 and the “Grade 3” value (topramezone 25 g ai/ha (1x)) was 0. For the same molecule, the “Resistance Grade” value (topramezone 50 g ai/ha (2x)) was “Non-resistant”, the score (topramezone 50 g ai/ha (2x)) was 100 and the “Grade 0” value (topramezone 50 g ai/ha (2x)) was 0. The “Grade 1” value (topramezone 50 g ai/ha (2x)) was 0, the “Grade 2” value (topramezone 50 g ai/ha (2x)) was 0 and the “Grade 3” value (topramezone 50 g ai/ha (2x)) was 20. The “Resistance Grade” value (topramezone 100 g ai/ha (4x)) was “Non-resistant”, the score (topramezone 100 g ai/ha (4x)) was 100 and the “Grade 0” value (topramezone 100 g ai/ha (4x)) was 0. For the same molecule, the “Grade 1” value (topramezone 100 g ai/ha (4x)) was 0, the “Grade 2” value (topramezone 100 g ai/ha (4x)) was 0 and the “Grade 3” value (topramezone 100 g ai/ha (4x)) was 20.
